Reference: paper PMC10200060, “Inhibition of DAMP actions in the tumoral microenvironment using lactoferrin-glycyrrhizin conjugate for glioblastoma therapy” (Biomaterials Research, 2023)

T1: human recombinant HMGB1 protein (Homo sapiens, UniProt P09429)
T1 construct: purchased Abcam
T1 sequence (P09429 1-215): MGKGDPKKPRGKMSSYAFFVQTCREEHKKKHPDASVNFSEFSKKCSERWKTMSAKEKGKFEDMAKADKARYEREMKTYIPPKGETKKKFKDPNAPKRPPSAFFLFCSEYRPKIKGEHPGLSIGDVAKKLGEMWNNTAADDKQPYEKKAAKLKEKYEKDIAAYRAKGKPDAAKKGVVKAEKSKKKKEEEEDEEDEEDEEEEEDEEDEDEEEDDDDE

B1: lactoferrin (protein, UniProt P02788 20-710, looked up)
Lactotransferrin: GRRRSVQWCAVSQPEATKCFQWQRNMRKVRGPPVSCIKRDSPIQCIQAIAENRADAVTLDGGFIYEAGLAPYKLRPVAAEVYGTERQPRTHYYAVAVVKKGGSFQLNELQGLKSCHTGLRRTAGWNVPIGTLRPFLNWTGPPEPIEAAVARFFSASCVPGADKGQFPNLCRLCAGTGENKCAFSSQEPYFSYSGAFKCLRDGAGDVAFIRESTVFEDLSDEAERDEYELLCPDNTRKPVDKFKDCHLARVPSHAVVARSVNGKEDAIWNLLRQAQEKFGKDKSPKFQLFGSPSGQKDLLFKDSAIGFSRVPPRIDSGLYLGSGYFTAIQNLRKSEEEVAARRARVVWCAVGEQELRKCNQWSGLSEGSVTCSSASTTEDCIALVLKGEADAMSLDGGYVYTAGKCGLVPVLAENYKSQQSSDPDPNCVDRPVEGYLAVAVVRRSDTSLTWNSVKGKKSCHTAVDRTAGWNIPMGLLFNQTGSCKFDEYFSQSCAPGSDPRSNLCALCIGDEQGENKCVPNSNERYYGYTGAFRCLAENAGDVAFVKDVTVLQNTDGNNNEAWAKDLKLADFALLCLDGKRKPVTEARSCHLAMAPNHAVVSRMDKVERLKQVLLHQQAKFGRNGSDCPDKFCLFQSETKNLLFNDNTECLARLHGKTTYEKYLGPQYVAGITNLKKCSTSPLLEACEFLRK
B2: Lf-GL-FITC: FITC-tagged Lf-GL for cellular uptake studies (conjugate, UniProt P02788 20-710, looked up)
Lactotransferrin: B1 Lactotransferrin
modifications: FITC label; GL conjugate
notes: FITC-tagged Lf-GL for cellular uptake studies

Key:
[1] = molecular target: T1, human recombinant HMGB1 protein; experiment: SPR binding affinity against HMGB1; conditions: SPR, HMGB1 immobilized
Protocol: To confirm the binding affinity of Lf-GL to HMGB1, Surface Plasmon Resonance (SPR) was conducted at WoojungBSC (Korea). The Reichert SR7500DC system (Reichert technologies, NA, USA) and Scrubber2 software (Biologic software, FRA) were used, and a CMDH chip (Cat #: 13,206,066, Reichert technologies) was used for immobilization of the human recombinant HMGB1 protein (Abcam). HMGB1 protein was used as a ligand, and the analytes were HMGB1 antibody (Abcam), GL, Lf and Lf-GL conjugate. The immobilization buffer was S.A. (10 × 10^–3 M, pH 4.5), and the running buffer was PBS (pH 7.4). The flow rate of the analyte was 30 μL min^−1. The association and dissociation time were 3 min each, and measurements were conducted at room temperature. Results are expressed in response units (RU) over time.
Fig. S5. Binding affinity against HMGB1. Surface Plasmon Resonance (SPR) was conducted at WoojungBSC (Korea). The Reichert SR7500DC system (Reichert technologies, NA, USA) and Scrubber2 software(Biologic software, FRA) were used and the CMDH chip (Cat #: 13206066, Reichert technologies) was used for immobilization of the human recombinant HMGB1 protein (Abcam). HMGB1 protein was used as ligand and analytes were HMGB1 antibody (Abcam), GL, Lf and Lf-GL conjugate. Immobilization buffer was 10 mM S.A. (pH 4.5) and running buffer was 1× PBS. The flow rate of the analyte was 30 μL min^-1. The association and dissociation time were 3 min each and conducted at room temperature. Results are expressed in response units (RU) over time.

[2] = system: U87MG human glioma cell line; experiment: Cell viability test (CCK-8) in U87MG; format: cell-based; conditions: 50 μM GL equivalent, after 48 h treatment
Protocol: Cell viability was determined using a cell counting kit-8 (CCK-8). U87MG and HUVECs (seeding density: 0.75 × 10^4 cells per well) in 96-well culture plates were treated with GL, Lf, or Lf-GL (25 to 200 × 10^–6 M of GL equivalent concentration) and were incubated for different periods of time (24, 48, and 72 h). After washing with PBS, they were treated with a cell culture medium containing a CCK-8 assay kit (Abbkine) and were incubated at 37 °C and 5% CO2 for 2 h. Then, absorbance was measured at 450 nm in a micro-plate reader (VLBL00D0, Thermo Fisher Scientific). Results were quantified using Sigma Plot (Systat Software, USA). To determine the effect of extracellular HMGB1 in GBM and endothelial cell proliferation, U87MG and HUVECs were seeded in 96-well culture plates (seeding density: 0.75 × 10^4 cells per well) and GL, Lf, or Lf-GL (50 × 10^–6 M GL equivalent concentration) were added to cells with or without HMGB1 protein (U87MG: 0.1 μg mL^−1, and HUVEC: 1 μg mL^−1). Cells were incubated for different periods of time (24, 48, and 72 h).

HMGB1 [3] = experiment: HMGB1 ELISA of U87MG culture medium; format: cell-based, human; conditions: 50 μM GL equivalent, 48 h (control 131.8 ± 11.4)
Protocol: U87MG cells were seeded in 100 mm-cell culture dishes (2.2 × 10^6 cells per dish) and treated with GL, Lf, or Lf-GL (50 × 10^–6 M GL equivalent concentration) for 48 h. After incubating, cells were collected using a cell scrapper and were centrifuged for 3 min at 150 × g. Supernatant was collected as cell culture medium, and pellets were washed with cold PBS twice and transferred into a microcentrifuge tube. Tubes were centrifuged, and then pellets were resuspended in 500 μL 1X hypotonic buffer and incubated on ice. Then, 25 μL of NP40 was added and the mixture was agitated using a vortex mixer at the highest setting. Homogenates were centrifuged for 10 min at 842 × g at 4℃. Supernatant was collected as the cytoplasmic fraction, and pellets were resuspended in cell extraction buffer (50 μL) and were incubated for 30 min on ice with vortexing at 10 min intervals. Then, homogenates were centrifuged for 30 min at 14,000 × g at 4℃. Supernatant was collected as the nuclear fraction. The amount of HMGB1 in the samples was measured using a HMGB1 ELISA kit (Abbkine), and absorbance was measured at 450 nm in a micro-plate reader. A DNA assay (Quant-iT™ dsDNA Assay Kit, Invitrogen) was also conducted to express HMGB1 concentrations in equivalent amounts of DNA.

HUVEC = HUVEC co-cultured with U87MG: CCK-8 at basal chamber; format: cell-based, human; conditions: HUVEC/U87MG Transwell co-culture, 100 μM GL equivalent, 24 h
Protocol: (§1) To evaluate the inhibitory effect of Lf-GL on neovascularization in the tumor microenvironment in vitro, U87MG cells were seeded in the Transwell® insert chambers that were 6.5 mm in diameter and had 0.4 μm pore sizes (seeding density: 2.5 × 10^4 cells per well, Corning). HUVECs were seeded in the Transwell basal chamber (seeding density: 5.0 × 10^4 cells per well). GL, Lf, or Lf-GL (100 × 10^–6 M of GL equivalent concentration) were added to the insert chamber, and cells were incubated for 24 h. CCK-8 assay and HMGB1 ELISA were conducted at the basal chamber.

HMGB1 [4] = experiment: HUVEC co-cultured with U87MG: HMGB1 ELISA; format: cell-based, human; conditions: HUVEC/U87MG co-culture, 100 μM GL equivalent, 24 h (control 217.8 ± 5.9)
Protocol: as §1

[5] = system: orthotopic GBM (U87MG) mice model; experiment: Survival in orthotopic GBM mouse model; format: in vivo, Balb/c nude mice; conditions: i.v. GL equivalent 50 mg kg^−1 (Lf 5 mg kg^−1)
Protocol: To establish the orthotopic GBM mice model, GBM cells (U87MG, inoculation density: 1.0 × 10^6 cells per 10 μL) were stereotactically injected into the right striatum of Balb/c nude mice. Then, mice were randomly divided into four groups (n = 5): control, GL, Lf, and Lf-GL treated group. […] After four weeks, mice were sacrificed, and organs were harvested and fixed with 4% paraformaldehyde for further analysis.

HMGB1 [6] = experiment: Immunofluorescence staining of HMGB1 in GBM tissue; format: in vivo, Balb/c nude mice; conditions: GBM mice, daily i.v. GL equivalent 50 mg kg^−1, 14 days (control 15.3 ± 1.7)
Description: (§2) After two weeks, mice were sacrificed, and the brains were harvested and fixed with paraformaldehyde (4%). Then, tissue processing was automatically conducted using a Leica TP1020 semi-enclosed Benchtop Tissue Processor (Leica Biosystems, Wetzlar, Hesse, Germany), followed by embedding in paraffin blocks. Paraffin blocks were sliced into 5 μm thick slices using a Leica RM2145 Microtome (Leica Biosystems). Nissl staining was used to stain brain tissue slides with pre-warmed 0.1% Cresyl Violet Stain Solution (Abcam). TUNEL assays were conducted following the manufacturer’s instructions. For immunofluorescence staining; anti-HMGB1 antibody (Abcam), anti-Ki67 antibody (Abcam), anti-CD31 antibody (Abcam), and anti-VEGF antibody (Abcam) were used as primary antibodies, and goat anti-rabbit IgG-H&L Alexa Fluor 488 and goat anti-rabbit IgG H&L Alexa Fluor 647 were used as secondary antibodies, followed by DAPI mounting.

CD31 = experiment: Immunofluorescence staining of CD31 in GBM tissue; format: in vivo, Balb/c nude mice; conditions: GBM mice, daily i.v., 14 days (control MFI 14.7 ± 1.4)
Description: as §2

[7] = system: orthotopic GBM (U87MG) mice model; experiment: Nissl staining: GBM/normal brain ratio; format: in vivo, Balb/c nude mice; conditions: daily i.v. GL equivalent 50 mg kg^−1, 14 days (control 37.5 ± 2.3)
Description: as §2

[8] = system: orthotopic GBM (U87MG) mice model; experiment: TUNEL assay of GBM tissue; format: in vivo, Balb/c nude mice; conditions: daily i.v., 14 days (control 28.5 ± 4.8)
Description: as §2

U87MG cells = experiment: Cellular uptake of FITC-tagged Lf-GL (flow cytometry); format: cell-based, human; conditions: 2 h incubation, Lf pre-treatment 500 nM
Protocol: To verify cellular uptake of Lf-GL, U87MG cells (seeding density: 2.5 × 10^4 cells per well) in an 8 well Nunc™ Lab-Tek II chambered coverglass (Thermo Scientific) were treated with FITC-tagged Lf-GL (1 × 10^–6 M) for different time periods (0 to 18 h). After washing with PBS, cells were treated with lysotracker (75 × 10^–9 M) and incubated for 2 h. Then, cells were fixed with 4% paraformaldehyde followed by DAPI mounting. Confocal laser scanning microscopy (SP8 X, Leica, Germany) was used to observe intracellular fluorescence, and images were processed using LAS X software (Leica).
Fig. S11. Significant cellular uptake of Lf-GL in U87MG. (a) Flow cytometry to evaluate cellular uptake of FITC tagged-Lf-GL (1 µM) in U87MG for 2,6, and 18 h. The 2 h pre-treatment of Lf and Pitstop® were treated in the concentration of 500 nM and 75 nM, respectively. (b) Quantification of cellular uptake for 18 h. Data were expressed as mean ± S.E.M (n=2).

Row | Molecule | KD, equilibrium dissociation constant (KD = Kd Ka^−1) [1] | Ka, association rate constant ([1]; PBS pH 7.4, room temperature) | Number of cells, % of the original count [2] | HMGB1 released into the medium of U87MG cells (HMGB1 [3]) | Reduction of endothelial cell proliferation (HUVEC) | HMGB1 level in medium (HMGB1 [4]) | Mice survived up to 28 days [5] | Additional days of survival versus PBS control ([5]; 28 days) | Mean fluorescence intensity (MFI) of HMGB1 (HMGB1 [6]) | Decrease of MFI of CD31 (CD31) | GBM/normal brain ratio [7] | TUNEL MFI [8] | Decrease of cellular internalization in the presence of Lf (U87MG cells)
1 | B1 | 165 ± 3 nM | (8.1±0.1)·10^4 M^-1s^-1 | 69.6 ± 5.7% | 114 ± 3.4 ng/mL | 8.2 ± 2.9% | 177.3 ± 3.6 ng/mL | 25% | 5 days | 7.9 ± 1.4 | ~2 fold | 29.7 ± 3.3 | 9.4 ± 1.6 | –
2 | B2 | – | – | – | – | – | – | – | – | – | – | – | – | about 17%
